Tests used:
[1] = molecular target: T1, kappa-sCD40-Flag fusion protein, fragment amino acids 1-94 (human, UniProt P25942 21-114); assay: ELISA, kappa-sCD40-Flag fusion (~2 ug/ml) captured on anti-Flag, anti-human IgG Fc-HRP
T1 construct: also called sCD40aa 1-94; not shown: N-terminal human kappa light chain; C-terminal Flag tag
Description: (§1) containing the sCD40 fusion proteins were captured to microtiter plates that were pre-coated with 5 μg/ml mouse anti-Flag antibody (Sigma) in PBS and blocked with 5% bovine serum albumin in PBS. Following incubation with the CD40 antibody, the microplates were washed with PBS/Tween, and incubated with a goat anti-human IgG Fc polyclonal reagent conjugated to horseradish peroxidase. After washing, the plates were developed with HRP substrate, and analyzed at OD 450-650 using a microtiter plate reader. An ELISA with a goat anti-human IgG Fab2-HRP to measure kappa chain binding was carried out in parallel to validate the sCD40 fusion protein expression from different transfections.

[2] = molecular target: T2, kappa-sCD40(1-94)-Flag point mutant T4V (human, UniProt P25942 21-114); assay: as above
T2 construct: not shown: N-terminal human kappa light chain; C-terminal Flag tag
T2 chain: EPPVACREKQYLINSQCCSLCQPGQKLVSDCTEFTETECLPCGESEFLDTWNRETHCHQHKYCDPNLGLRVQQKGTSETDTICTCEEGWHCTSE
Description: as §1

[3] = molecular target: T3, kappa-sCD40(1-94)-Flag point mutant E33A (human, UniProt P25942 21-114); assay: as above
T3 construct: not shown: N-terminal human kappa light chain; C-terminal Flag tag
T3 chain: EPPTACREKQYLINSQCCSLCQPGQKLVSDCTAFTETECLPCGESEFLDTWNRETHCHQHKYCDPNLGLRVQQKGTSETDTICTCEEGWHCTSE
Description: as §1

[4] = molecular target: T4, kappa-sCD40(1-94)-Flag mutant fragment A (multiple mutations of residues 1-5) (human, UniProt P25942 26-114); assay: as above
T4 construct: The text says only multiple mutations of residues 1-5 (human to mouse differences); that mutant A carries exactly these is inferred; also called A (1-5); not shown: N-terminal human kappa light chain; C-terminal Flag tag
Description: as §1

[5] = molecular target: T5, kappa-sCD40(1-94)-Flag point mutant F34L (human, UniProt P25942 21-114); assay: as above
T5 construct: not shown: N-terminal human kappa light chain; C-terminal Flag tag
T5 chain: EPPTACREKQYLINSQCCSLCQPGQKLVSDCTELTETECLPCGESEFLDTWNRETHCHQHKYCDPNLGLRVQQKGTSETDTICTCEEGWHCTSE
Description: as §1

[6] = molecular target: T6, kappa-sCD40(1-94)-Flag mutant fragment D (multiple mutations of residues 33-36) (human, UniProt P25942 21-114); assay: as above
T6 construct: The text says only multiple mutations of residues 33-36 (human to mouse differences); that mutant D carries exactly these is inferred; also called D (33-36); not shown: N-terminal human kappa light chain; C-terminal Flag tag
T6 chain: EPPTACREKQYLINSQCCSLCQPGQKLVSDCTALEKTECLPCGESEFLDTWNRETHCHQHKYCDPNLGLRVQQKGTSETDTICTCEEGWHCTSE
Description: as §1

[7] = molecular target: T7, kappa-sCD40(1-94)-Flag point mutant T35E (human, UniProt P25942 21-114); assay: as above
T7 construct: not shown: N-terminal human kappa light chain; C-terminal Flag tag
T7 chain: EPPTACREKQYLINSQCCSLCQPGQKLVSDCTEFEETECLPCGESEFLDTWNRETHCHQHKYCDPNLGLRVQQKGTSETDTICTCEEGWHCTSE
Description: as §1

[8] = molecular target: T8, kappa-sCD40(1-94)-Flag point mutant A5T (human, UniProt P25942 21-114); assay: as above
T8 construct: not shown: N-terminal human kappa light chain; C-terminal Flag tag
T8 chain: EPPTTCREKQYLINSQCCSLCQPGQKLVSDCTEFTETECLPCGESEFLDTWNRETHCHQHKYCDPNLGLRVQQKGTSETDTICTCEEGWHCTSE
Description: as §1

[9] = molecular target: T9, kappa-sCD40(1-94)-Flag point mutant E36K (human, UniProt P25942 21-114); assay: as above
T9 construct: not shown: N-terminal human kappa light chain; C-terminal Flag tag
T9 chain: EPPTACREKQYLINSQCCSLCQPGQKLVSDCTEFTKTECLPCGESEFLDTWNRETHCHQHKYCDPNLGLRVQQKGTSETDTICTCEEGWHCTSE
Description: as §1

[10] = molecular target: T10, kappa-sCD40(1-94)-Flag point mutant P3S (human, UniProt P25942 21-114); assay: as above
T10 construct: not shown: N-terminal human kappa light chain; C-terminal Flag tag
T10 chain: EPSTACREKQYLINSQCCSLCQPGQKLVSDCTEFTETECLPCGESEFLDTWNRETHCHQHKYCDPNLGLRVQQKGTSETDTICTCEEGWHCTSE
Description: as §1

[11] = molecular target: T11, kappa-sCD40(1-94)-Flag point mutant P2Q (human, UniProt P25942 21-114); assay: as above
T11 construct: not shown: N-terminal human kappa light chain; C-terminal Flag tag
T11 chain: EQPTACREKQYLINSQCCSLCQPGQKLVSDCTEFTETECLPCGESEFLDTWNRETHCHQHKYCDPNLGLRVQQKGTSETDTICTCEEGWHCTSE
Description: as §1

[12] = molecular target: T6, kappa-sCD40(1-94)-Flag mutant fragment …; assay: ELISA, kappa-sCD40-Flag fusion captured on anti-Flag, anti-human IgG Fc-HRP
Description: as §1, with “1 μg/ml of purified kappa-sCD40-Flag fusion proteins or CHO cell supernatants containing” for “containing”

B1: anti-CD40 human monoclonal antibody 3C3 (antibody, human IgG2, kappa, V domains shown)
VH: QVQLVESGGGVVQPGRSLRLSCAGSGFIFSRYGMYWVRQAPGKGLEWVAVIWYDGSYKYYADSVKGRFTISRDNSKNTLYLQMNSLRAEDTAVYYCARESPWYYFDYWGQGTLVTVSS
VL: DIQMTQSPSSLSASVGDRVTITCRASQGISNYLAWYQQKPGKVPKLLIYAASTLQSGVPSRFSGSGSGTDFTLTISSLQPEDVATYYCQKYKSAPFTFGPGTKVDIKR
notes: Human IgG2, C-terminal lysine removed; also called anti-CD40 mAb 3C3; CD40 antibody 3C3
Q: With B1 as the binder, how does the “Average OD” value [1] read?
A: 2.16 OD 450-650

Q: What about the “Average OD” value [2] of the same binder?
A: 2.15 OD 450-650

Q: What about the “Average OD” value [3] of the same binder?
A: 1.62 OD 450-650

Q: What about the “Average OD” value [4] of the same binder?
A: 0.167 OD 450-650

Q: What about the “Average OD” value [5] of the same binder?
A: 1.88 OD 450-650

Q: What about the “Average OD” value [6] of the same binder?
A: 0.124 OD 450-650

Q: And the “Average OD” value [7]?
A: 2.07 OD 450-650

Q: And the “Average OD” value [8]?
A: 1.13 OD 450-650

Q: What about the “Average OD” value [9] of the same binder?
A: 1.37 OD 450-650

Q: And the “Average OD” value [10]?
A: 2.01 OD 450-650

Q: And the “Average OD” value [11]?
A: 2.08 OD 450-650

Q: And the “Average OD” value [12]?
A: 0.092 OD 450-650

Source: patent US20250115663A1 (CELLDEX THERAPEUTICS, published 2025)
